Source: patent publication US6919086B1, “Graminae pollen allergen mutants for specific immunotherapy, and production and use of the same” (Merck Patent Gesellschaft mit, priority 1997, dated 2005)
Like-named read-outs stand apart in the source and are kept apart here.

Experiments:
[1] = tested on: IgE antibodies of allergic patients; assay: EAST inhibition test (IgE reactivity / allergenicity); type: binding, human; details: for IC50: read-out: Inhibition value 50% (concentration of the inhibitor at 50% inhibition); for Allergenic potency (Prel) 25%: relative to native Phl p 5b at 25% inhibition; for Allergenic potency (Prel) 50%: relative to native Phl p 5b at 50% inhibition
Protocol: The effects of the induced mutations on the allergenicity, i.e. the ability to bind to the IgE antibodies of allergic patients, of the modified recombinant allergens is determined qualitatively and quantitatively by means of the EAST inhibition test. […] The extent of the immunochemical relatedness (cross reactivity) can also be quantified. This EAST inhibition test only takes the reaction with IgE antibodies into account.
The binding of the allergens by the IgE antibodies is the basic prerequisite for the allergen-specific activation of the effector cells (mast cells, basophils, inter alia) in type I allergy. The allergen-specific inhibition of the enzyme/allergen sorbent test (EAST) is the best means for qualitatively and quantitatively recording the binding of the allergens to IgE anti-bodies. The EAST inhibition test is carried out as follows. Microtitre plates are coated with allergen (natural or recombinant Ph1 p 5 or Ph1 p 5b) (1 μg/ml). After the unbound allergen molecules have been removed by washing, non-specific plastic binding sites are blocked with bovine serum albumin (0.5%). […] from allergic patients, as a representative pool of 10-30 donors or as an individual serum, is incubated, in a suitable dilution, with the allergen-coated microtritre plates. The bound allergen-specific IgE antibodies are quantified using enzyme-coupled anti-IgE antibodies (e.g. alk. phosphatase-a-IgE antibodies). This binding is inhibited by soluble allergen or the substance to be tested (allergen mutants) in dependence on the concentration. The inhibition curve obtained with the purified natural allergen Ph1 p 5b is used as the reference.

[2] = tested on: Phl p 5b-reactive T cell lines (TCLs) from allergic patients; assay: Proliferative reaction of Phl p 5b-reactive oligoclonal T cell lines ([3H]-thymidine incorporation); type: cell-based, human; details: secondary activator 0.3 μM
Protocol: In the second phase, oligoclonal T cell lines, which have been established by repeated stimulation with the relevant allergens, are employed for the testing. Once again, only those modified recombinant allergens which at least give rise to a stimulation index (SI) of 50% of the SI of the wild type are taken into consideration.
(§1) 40 ml of heparinized blood were obtained from each patient. Peripheral mononuclear cells (PBMC) were then isolated from this blood sample by means of the customary method using density gradient centrifugation. Analogous cell isolations were carried out at a later stage when it was necessary to obtain irradiated autologous antigen-presenting cells (APC) for characterizing the TCL and TCC further. After the PBMC had been counted, TCL which reacted to group 5 allergens in vitro were established as follows and as has already been described in detail elsewhere (Lit. 1): in each well of 24-well microculture plates, from 1.5 to 2.0×10^6 PBMC in 1 ml of culture medium (UltraCulture) were stimulated for 7 days in the added presence of natural Phl p5 allergens (in each case 10 μg/well) which had been purified by immunoaffinity chromatography. A total of from 8 to 10 of these cultures were set up. The isolation of Phl p5 by means of immunoaffinity chromatography has been described in detail (Lit. 2). At the end of the 7 days of culture, IL-2 (from 10 to 20 IU/well) was added to the cell cultures for a further 5 to 7 days. All the individual cultures were then pooled and the T cell blasts were enriched by means of density gradient centrifugation; the TCL which were obtained were then tested in a specific lymphocyte proliferation test (see Lit. 1 as well). For this, 2×10^4/ml TCL blasts were in each case cultured with 5×10^4/ml irradiated autologous APCs in triplicate samples in 96-well microculture plates. 10-20 μg of Phl p5 allergen were added as the specific antigen stimulus. After 56 hours of incubation, ^3H-labelled thymidine (1 μCi/well) was pipetted into the microcultures. After a further 16 hours, the radioactivity which had been incorporated into the proliferating T cell blasts was measured in a beta counter (Matrix 96). The results were calculated, as the arithmetic mean of the multiple samples, in counts per minute (cpm). The criterion for the quality of the TCL was the stimulation index, which was obtained by relating the cpm values with Phl p5 addition to those without Phl p5 addition.
The oligoclonal T cell lines (TCLs) from 8 patients who were allergic to grass pollen (see Ex. 1) were established by repeated activation with natural Ph1 p 5b (a+b) or recombinant rPh1 p 5b or 5a+5b.
The proliferative reaction of these TCLs was tested using the rPh1 p 5b mutants (FIG. 10).

[3] = tested on: Phl p 5b-reactive T cell clones (TCCs) from allergic patients; assay: Proliferative reaction of Phl p 5b-reactive T cell clones ([3H]-thymidine incorporation); type: cell-based, human; details: final concentration 0.3 μM
Protocol: as §1
After a TCL had been cloned (see below), the specificity of the isolated TCCs were determined as has just been described. Stimulation indices of at least 5 were rated as being positive for the TCCs. The determination of T cell epitopes for defining the T cell-reactive regions on group 5 allergens was also carried out using specific proliferation tests, with 1-2 μg of synthesized dodecapeptide/ml being used for this purpose in each case (see below).
The reactivity of the recombinant Ph1 p 5b mutants was tested on established T cell clones (TCCs) of known specificity. The TCCs derive from patients who are allergic to grass pollen (see Ex. 1) and are directed against the T cell-reactive regions A (FIG. 7), B (FIG. 8) and C (FIG. 9). The T cell reactivity was measured by stimulating the clones to proliferate.

[4] = allergic patient serum pool Bor 18/100
[5] = allergic patient serum pool We 6/97
[6] = individual allergic patient serum II/3
[7] = individual allergic patient serum II/12
[8] = individual allergic patient serum II/17

IC50 [1, 4] [nM] | IC50 [1, 5] [nM] | IC50 [1, 6] [nM] | IC50 [1, 7] [nM] | IC50 [1, 8] [nM] | Molecule | Inhibition value 25% (concentration of the inhibitor at 25% inhibition) [1, 4] [mol/L] | Inhibition value 25% (concentration of the inhibitor at 25% inhibition) [1, 5] [mol/L] | Inhibition value 25% (concentration of the inhibitor at 25% inhibition) [1, 6] [mol/L] | Inhibition value 25% (concentration of the inhibitor at 25% inhibition) [1, 7] [mol/L] | Inhibition value 25% (concentration of the inhibitor at 25% inhibition) [1, 8] [mol/L] | Allergenic potency (Prel) 25% ([1]; individual serum II/3) | Allergenic potency (Prel) 25% ([1]; individual serum II/12) | Allergenic potency (Prel) 25% ([1]; individual serum II/17) | Allergenic potency (Prel) 25% ([1]; serum pool Bor 18/100) | Allergenic potency (Prel) 25% ([1]; serum pool We 6/97) | Allergenic potency (Prel) 50% ([1]; individual serum II/3) | Allergenic potency (Prel) 50% ([1]; individual serum II/12) | Allergenic potency (Prel) 50% ([1]; individual serum II/17) | Allergenic potency (Prel) 50% ([1]; serum pool Bor 18/100) | Allergenic potency (Prel) 50% ([1]; serum pool We 6/97) | other results
5 | 1400 | 14 | 73 | 4.7 | r Phl p 5b: recombinant wild type Phl p 5b, 265 amino acids, SEQ ID NO 87 (protein) ADAGYAPATPAAAGAAAGKATTEEQKLIEDINVGFKAAVAAAASVPAADKFKTFEAAFTSSSKAAAAKAPGLVPKLDAAYSVAYKAAVGATPEAKFDSFVASLTEALRVIAGALEVHAVKPVTEEPGMAKIPAGELQIIDKIDAAFKVAATAAATAPADDKFTVFEAAFNKAIKESTGGAYDTYKCIPSLEAAVKQAYAATVAAAPQVKYAVFEAALTKAITAMSEVQKVSQPATGAATVAAGAATTAAGAASGAATVAAGGYKV | 2e-10 | 3e-10 | 5.6e-10 | 8.7e-10 | 2.1e-10 | 0.9030 | 0.597 | 1.045 | 1.709 | 1.697 | 0.4190 | 0.093 | 0.5450 | 0.8410 | 0.4400 | EAST inhibition curve / inhibitory effect (in words) ([1]; serum pool Bor 18/100 (20 donors), FIG. 1): binding curves which are similar to that obtained with natural Ph1 p 5b; Incorporation of [3H]-thymidine into TCL 1 Wöl (stimulation index class) ([2]; primary stimulator n Phl p 5): + (1-2 (+)); Incorporation of [3H]-thymidine into TCL 2 Eic (stimulation index class) ([2]; primary stimulator n Phl p 5): + (1-2 (+)); Incorporation of [3H]-thymidine into TCL 3 Fre (stimulation index class) ([2]; primary stimulator n Phl p 5): + (1-2 (+)); Incorporation of [3H]-thymidine into TCL 4 Mer (stimulation index class) ([2]; primary stimulator n Phl p 5): + (1-2 (+)); Incorporation of [3H]-thymidine into TCL 5 17.4 (stimulation index class) ([2]; primary stimulator r Phl p 5): + (1-2 (+)); Incorporation of [3H]-thymidine into TCL 6 Mah (stimulation index class) ([2]; primary stimulator r Phl p 5a, r Phl p 5b): +++ (>10 (+++)); Incorporation of [3H]-thymidine into TCL 7 19.2 (stimulation index class) ([2]; primary stimulator r Phl p 5b): +++ (>10 (+++)); Incorporation of [3H]-thymidine into TCL 8 20.1 (stimulation index class) ([2]; primary stimulator r Phl p 5b): +++ (>10 (+++)); Incorporation of [3H]-thymidine into TCC CB 2 (stimulation index class) ([3]; T cell-reactive region A): +++ (>10 (+++)); Incorporation of [3H]-thymidine into TCC CB 14 (stimulation index class) ([3]; T cell-reactive region A): +++ (>10 (+++)); Incorporation of [3H]-thymidine into TCC JR 13 (stimulation index class) ([3]; T cell-reactive region A): +++ (>10 (+++)); Incorporation of [3H]-thymidine into TCC JR 15 (stimulation index class) ([3]; T cell-reactive region A): +++ (>10 (+++)); Incorporation of [3H]-thymidine into TCC DW8 (stimulation index class) ([3]; T cell-reactive region B): + (1-2 (+)); Incorporation of [3H]-thymidine into TCC UZH2 (stimulation index class) ([3]; T cell-reactive region B): +++ (>10 (+++)); Incorporation of [3H]-thymidine, stimulation index SI, 1st exp. ([3]; T cell-reactive region C): 11.0; Incorporation of [3H]-thymidine, stimulation index SI, 2nd exp. ([3]; T cell-reactive region C): 7.0; Incorporation of [3H]-thymidine, stimulation index SI, 3rd exp. ([3]; T cell-reactive region C): 5.5; Incorporation of [3H]-thymidine, stimulation index class (last column, no head) ([3]; T cell-reactive region C): ++ (5-10 (++))
4.2 | 6.1 | 5.9 | 6.8 | 2.6 | n Phl p 5b: purified natural allergen Phl p 5b of timothy grass (Phleum pratense), reference of the EAST inhibition (protein) ADAGYAPATPAAAGAAAGKATTEEQKLIEDINVGFKAAVAAAASVPAADKFKTFEAAFTSSSKAAAAKAPGLVPKLDAAYSVAYKAAVGATPEAKFDSFVASLTEALRVIAGALEVHAVKPVTEEPGMAKIPAGELQIIDKIDAAFKVAATAAATAPADDKFTVFEAAFNKAIKESTGGAYDTYKCIPSLEAAVKQAYAATVAAAPQVKYAVFEAALTKAITAMSEVQKVSQPATGAATVAAGAATTAAGAASGAATVAAGGYKV | 3.3e-10 | 5.1e-10 | 5.1e-10 | 5.2e-10 | 2.2e-10 | 1.000 | 1.000 | 1.000 | 1.000 | 1.000 | 1.000 | 1.000 | 1.000 | 1.000 | 1.000 | –
